# Experimental data from publication doi:10.1101/2023.05.24.542197.
# Target: Dicer (endogenous human Dicer) (human (endogenous in HeLa and HEK 293T)) (UniProt Q9UPY3)
# Assay: proximity ligation
# UniProt Q9UPY3, sequence (Q9UPY3 whole entry): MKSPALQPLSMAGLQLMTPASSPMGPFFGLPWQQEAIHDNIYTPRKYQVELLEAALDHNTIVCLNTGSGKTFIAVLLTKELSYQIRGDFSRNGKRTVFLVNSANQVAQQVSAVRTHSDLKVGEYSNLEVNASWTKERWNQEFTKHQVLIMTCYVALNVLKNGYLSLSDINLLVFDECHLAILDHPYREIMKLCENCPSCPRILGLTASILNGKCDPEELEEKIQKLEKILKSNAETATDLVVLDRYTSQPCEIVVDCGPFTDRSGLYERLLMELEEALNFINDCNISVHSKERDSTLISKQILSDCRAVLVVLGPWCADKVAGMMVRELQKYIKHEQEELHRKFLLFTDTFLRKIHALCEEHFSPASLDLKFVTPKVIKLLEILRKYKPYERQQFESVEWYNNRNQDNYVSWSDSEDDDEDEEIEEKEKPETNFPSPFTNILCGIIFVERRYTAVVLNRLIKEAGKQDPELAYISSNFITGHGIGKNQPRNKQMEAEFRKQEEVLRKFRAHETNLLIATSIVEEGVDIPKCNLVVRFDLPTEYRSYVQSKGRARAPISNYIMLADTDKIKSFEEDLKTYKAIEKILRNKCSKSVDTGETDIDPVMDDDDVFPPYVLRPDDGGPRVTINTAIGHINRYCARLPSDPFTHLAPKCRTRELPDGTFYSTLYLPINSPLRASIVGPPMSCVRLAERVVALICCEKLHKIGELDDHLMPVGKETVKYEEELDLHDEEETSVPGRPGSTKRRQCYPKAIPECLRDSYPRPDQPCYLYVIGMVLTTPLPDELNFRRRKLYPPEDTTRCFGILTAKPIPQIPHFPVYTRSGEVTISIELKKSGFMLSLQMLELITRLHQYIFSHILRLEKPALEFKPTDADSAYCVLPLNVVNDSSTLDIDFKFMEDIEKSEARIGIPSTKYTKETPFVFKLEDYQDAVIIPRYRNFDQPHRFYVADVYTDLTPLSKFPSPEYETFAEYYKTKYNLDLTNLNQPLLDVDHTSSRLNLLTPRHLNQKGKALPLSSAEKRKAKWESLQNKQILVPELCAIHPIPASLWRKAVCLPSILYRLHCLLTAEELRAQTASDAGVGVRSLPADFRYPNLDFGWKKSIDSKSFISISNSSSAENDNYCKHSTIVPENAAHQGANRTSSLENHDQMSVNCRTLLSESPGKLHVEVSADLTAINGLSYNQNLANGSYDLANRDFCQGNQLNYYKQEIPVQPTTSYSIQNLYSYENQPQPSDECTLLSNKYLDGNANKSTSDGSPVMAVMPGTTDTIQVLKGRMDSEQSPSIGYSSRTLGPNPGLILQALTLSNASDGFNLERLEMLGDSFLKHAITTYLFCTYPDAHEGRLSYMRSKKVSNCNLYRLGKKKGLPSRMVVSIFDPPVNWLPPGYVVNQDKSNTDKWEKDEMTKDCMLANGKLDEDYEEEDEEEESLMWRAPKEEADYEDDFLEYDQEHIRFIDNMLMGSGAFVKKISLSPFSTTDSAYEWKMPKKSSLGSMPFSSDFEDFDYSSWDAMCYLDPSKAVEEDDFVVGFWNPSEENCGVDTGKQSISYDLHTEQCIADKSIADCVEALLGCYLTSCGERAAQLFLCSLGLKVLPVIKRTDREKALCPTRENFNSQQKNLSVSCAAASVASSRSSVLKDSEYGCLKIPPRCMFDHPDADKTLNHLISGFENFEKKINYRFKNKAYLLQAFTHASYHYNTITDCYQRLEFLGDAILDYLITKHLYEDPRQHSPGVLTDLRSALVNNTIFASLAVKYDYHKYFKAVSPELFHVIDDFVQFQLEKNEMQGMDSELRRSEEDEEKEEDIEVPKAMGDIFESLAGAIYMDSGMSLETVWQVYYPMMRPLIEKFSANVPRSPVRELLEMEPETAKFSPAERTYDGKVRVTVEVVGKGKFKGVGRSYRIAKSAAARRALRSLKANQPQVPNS
substance,measurement,value
Flag-Gag (pCI-Neo-Flag-Gag) (natural protein),PLA proximity events in a cell (highest) (proximity events per cell),< 36
